# B1: Tt27-NOX (Thermus thermophilus HB27; H194Y) (protein)
# chain: MEATLPVLDAKTAALKRRSIRRYRKDPVPEGLLREILEAALRAPSAWNLQPWRIVVVRDPATKRALREAAFGQAHVEEAPVVLVLYADLEDALAHLDEVIHPGVQGERREAQKQAIQRAFAAMGQEARKAWASGQSYILLGYLLLLLEAYGLGSVPMLGFDPERVKAILGLPSHAAIPALVALGYPAEEGYPSYRLPLERVVLWR
# notes: Recombinant, pET22b, E. coli BL21(DE3), heat shock plus PEI-Ag/DS-Ag; homodimer, ~27 kDa monomer
# B2: R166/R174/H194 variant (Tt8-NOX variant) (Thermus thermophilus HB8; H174R) (protein)
# chain: MEATLPVLDAKTAALKRRSIRRYRKDPVPEGLLREILEAALRAPSAWNLQPWRIVVVRDPATKRALREAAFGQAHVEEAPVVLVLYADLEDALAHLDEVIHPGVQGERREAQKQAIQRAFAAMGQEARKAWASGQSYILLGYLLLLLEAYGLGSVPMLGFDPERVRAILGLPSRAAIPALVALGYPAEEGYPSHRLPLERVVLWR
# notes: pET22b, E. coli BL21(DE3); homodimer, ~27 kDa monomer
# B3: Tt27-NOX (Thermus thermophilus HB27; H194Y/K166R) (protein)
# chain: MEATLPVLDAKTAALKRRSIRRYRKDPVPEGLLREILEAALRAPSAWNLQPWRIVVVRDPATKRALREAAFGQAHVEEAPVVLVLYADLEDALAHLDEVIHPGVQGERREAQKQAIQRAFAAMGQEARKAWASGQSYILLGYLLLLLEAYGLGSVPMLGFDPERVRAILGLPSHAAIPALVALGYPAEEGYPSYRLPLERVVLWR
# notes: as for B1
# B4: Tt27-NOX (Thermus thermophilus HB27; H174R/H194Y) (protein)
# chain: MEATLPVLDAKTAALKRRSIRRYRKDPVPEGLLREILEAALRAPSAWNLQPWRIVVVRDPATKRALREAAFGQAHVEEAPVVLVLYADLEDALAHLDEVIHPGVQGERREAQKQAIQRAFAAMGQEARKAWASGQSYILLGYLLLLLEAYGLGSVPMLGFDPERVKAILGLPSRAAIPALVALGYPAEEGYPSYRLPLERVVLWR
# notes: as for B1
# Legend:
# Assay in all cases: purified protein
# purified protein [1] = substrate: Cc1cc2nc3c(=O)[nH]c(=O)nc-3n(C[C@H](O)[C@H](O)[C@H](O)CO)c2cc1C; conditions: 10 µM NADH, pH 7, 25 °C, exogenous flavin, varied: cofactor
# purified protein [2] = substrate: Cc1cc2nc3c(=O)[nH]c(=O)nc-3n(C[C@H](O)[C@H](O)[C@H](O)COP(=O)(O)O)c2cc1C; assay type: biochemical, Thermus thermophilus; conditions: 10 µM NADH, pH 7, 25 °C, exogenous flavin, varied: cofactor
# purified protein [3] = substrate: Cc1cc2nc3c(=O)[nH]c(=O)nc-3n(C[C@H](O)[C@H](O)[C@H](O)COP(=O)(O)OP(=O)(O)OC[C@H]3O[C@@H](n4cnc5c(N)ncnc54)[C@H](O)[C@@H]3O)c2cc1C; assay type: biochemical, Thermus thermophilus; conditions: 10 µM NADH, pH 7, 25 °C, exogenous flavin, varied: cofactor
# purified protein [4] = substrate: NC(=O)C1=CN([C@@H]2O[C@H](COP(=O)(O)OP(=O)(O)OC[C@H]3O[C@@H](n4cnc5c(N)ncnc54)[C@H](O)[C@@H]3O)[C@@H](O)[C@H]2O)C=CC1; assay type: biochemical, Thermus thermophilus; conditions: 50 µM FAD, pH 7, 25 °C
# [5] = authors' cloned wild type, apparent
# [6] = authors' cloned wild type K166/H174/Y194, apparent
protein,measurement,setting,value
B1,Km,"purified protein [1]; K166/H174/H194, apparent",68.7 ± 3.4 µM
same,Km,purified protein [1]; [5],69.7 ± 3.5 µM
same,Km,"purified protein [2]; K166/H174/H194, apparent",45 ± 2.3 µM
same,Km,purified protein [2]; [5],43 ± 2.2 µM
same,Km,"purified protein [3]; K166/H174/H194, apparent",46 ± 2.3 µM
same,Km,purified protein [3]; [5],34 ± 1.7 µM
same,Km,"purified protein [4]; K166/H174/H194, apparent",1.3 ± 0.06 µM
same,kcat,"purified protein [4]; K166/H174/H194, apparent",27.2 ± 1.4 s⁻¹
same,kcat/Km,"purified protein [4]; K166/H174/H194, apparent",2.1e+07 ± 1.1e+06 M⁻¹ s⁻¹
same,Km,purified protein [4]; [6],1.6 ± 0.1 µM
same,kcat,purified protein [4]; [6],23.3 ± 1.2 s⁻¹
same,kcat/Km,purified protein [4]; [6],1.46e+07 ± 70000 M⁻¹ s⁻¹
B2,Km,"purified protein [1]; R166/R174/H194, apparent",50.8 ± 2.6 µM
same,Km,"purified protein [2]; R166/R174/H194, apparent",23.6 ± 1 µM
same,Km,"purified protein [3]; R166/R174/H194, apparent",31.9 ± 1.4 µM
same,Km,"purified protein [4]; R166/R174/H194, apparent",1.8 ± 0.1 µM
same,kcat,"purified protein [4]; R166/R174/H194, apparent",15.1 ± 0.8 s⁻¹
same,kcat/Km,"purified protein [4]; R166/R174/H194, apparent",8.4e+06 ± 420000 M⁻¹ s⁻¹
B3,Km,"purified protein [2]; R166/H174/Y194, apparent",27 ± 1.4 µM
same,Km,"purified protein [3]; R166/H174/Y194, apparent",30 ± 1.5 µM
B4,Km,"purified protein [1]; K166/R174/Y194, apparent",60 ± 3 µM
same,Km,"purified protein [2]; K166/R174/Y194, apparent",15 ± 0.8 µM
same,Km,"purified protein [3]; K166/R174/Y194, apparent",127 ± 6.4 µM
same,Km,"purified protein [4]; K166/R174/Y194, apparent",1.9 ± 0.1 µM
same,kcat,"purified protein [4]; K166/R174/Y194, apparent",8.6 ± 0.4 s⁻¹
same,kcat/Km,"purified protein [4]; K166/R174/Y194, apparent",4.5e+06 ± 220000 M⁻¹ s⁻¹
